B1: his6-cortactin, wild type (purified) [not stated] / GST-GluA2 C-terminal tail [not stated] (parent complex)
chain 1: not shown
chain 2: EFCYKSRAEAKRMKVAKNPQNINPSSSQNSQNFATYKEGYNVYGIESVKI

Here are results for five variants from article PMC5841360 (2018).

In this assay the parent is B1. The experiment in a line: GST pulldown, Western blot quantification; Input is 0.2% of offered protein; n = 3-6; read off a plot.
Take chain 2 K17A, chain 2 N18A: the percent of parent was approximately 76.

As for chain 2 R12A, chain 2 M13A, the percent of parent was approximately 55.

Regarding chain 2 P19A, chain 2 Q20A, the percent of parent was approximately 83.

chain 2 K14A, chain 2 V15A: the percent of parent is approximately 37.

Turning to chain 2 K11A, the percent of parent was approximately 22.
